# Source: patent publication US20120177676A1 (COMPLIX, published 2012)
# B1: scAB013_N3 Alphabody, N-terminally appended with a (His)6 tag (designed binder)
# chain: HHHHHHAAIAAQQHLIALIQWGIAQLQARIYAMTGGSSGGMSIEEIQKQIAAIQKQIAAIQKQIYRMTGGSSGGMSIQAIQKQLQAIVKQIKAIQKQILAMEA
# notes: Expressed in E. coli BL21(DE3) from pET16b and purified by IMAC and SEC; also called gp41 N-trimer-mimicking Alphabody
# Target: T1, biotinylated C36 peptide bL4_C36 (residues 628 to 663 of HIV-1 HXB2 Env, gp41 HR2) (HIV-1 HXB2, N-terminal biotin attached through the Gly-Ser-Gly-Ser linker; C-terminal amide)
# T1 construct: also called C36 derivative
# T1 peptide: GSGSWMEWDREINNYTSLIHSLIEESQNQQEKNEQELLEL
# Test: ITC, bL4_C36 (50 microM, syringe) titrated into scAB013_N3 (2.46 microM, cell), 1:1 binding model
binder,measurement,value
B1,Kd,150 nM
same,ΔH,-7.17 kcal/mol
